Legend:
[1] = molecular target: T1, NS5A-TP2 (Homo sapiens, UniProt Q7Z4H3); assay: Yeast two-hybrid assays of R5G42 mutants; type: binding; details: plasmids pSH18-34, pJK103, pRB18-40
T1 construct: expressed in transfected cells; host or cells: yeast
T1 sequence (Q7Z4H3 1-204): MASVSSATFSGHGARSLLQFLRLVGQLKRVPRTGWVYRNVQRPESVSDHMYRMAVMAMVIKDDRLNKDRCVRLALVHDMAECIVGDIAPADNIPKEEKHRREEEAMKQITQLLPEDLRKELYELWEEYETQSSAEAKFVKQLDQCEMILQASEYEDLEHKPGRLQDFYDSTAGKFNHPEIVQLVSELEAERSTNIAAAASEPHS
Method: The capacity of R5G42 mutants having a one amino acid change as compared to R5G42 to bind CNA beta and gamma C-Terminal fragments (FIG. 3b) and NS5A-TP2 was tested in yeast two-hybrid assays. CNA beta and gamma C-Terminal fragments and NS5A-TP2 were cloned in three different vectors (pSH18-34, pJK103 and pRB18-40). These three plasmids differ from each other in the level of sensitivity of their promoter, pSH18-34 having the highest sensitivity and pRB18-40 having the lowest.
The inventors explored the ability of R5G42 mutants having a one amino acid change as compared to R5G42, to bind to CNA beta and gamma C-Terminal fragments (FIG. 3b) and to NS5A-TP2. To this end, they proceeded to yeast-two hybrid assays as in example 3. CNA beta and gamma C-Terminal fragments (FIG. 3b) and NS5A-TP2 were cloned in three different plasmids (pSH18-34, pJK103 and pRB18-40), which differed from each other in the level of sensitivity of their promoter to the bait/prey complex formation, pSH18-34 having the highest sensitivity and pRB18-40 having the lowest.

[2] = tested on: tibialis anterior muscle atrophy; assay: In vivo tibia muscles denervation assay; details: mice, plasmid electroporation in hind legs, 14 days post-denervation
Method: Vectors containing TRX, the R5G42, C7 or N9 aptamers or NaCl (control) were electroporated in mice hind legs (day 1) and an unilateral abolition of the motor innervation of the tibia muscles of the left hind leg was performed (day 3). After euthanasia of the mice (day 17) the tibialis anterior area was measured. Without denervation, the muscle area is relatively stable from one experiment to another (6.532.412+/−351.070, or 5.3% of variation). With denervation a reduced atrophy effect of about 27% and 48% is observed with aptamers R5G42 and N9 as compared to the atrophy effect obtained using the NaCl control (See FIGS. 19-20). The 100% of atrophy effect was evaluated using the data obtained with the NaCl control.
Another group of mice hind legs were electroporated after the injection of vectors containing TRX, the R5G42, C7 or N9 aptamers or with NaCl (control) at day 1. A unilateral abolition of the motor innervation of the tibia muscles of the left hind leg was performed at day 3 in order to induce a muscular atrophy. The mice were then euthanised at day 17, i.e. 14 days after sciatic denervation of the left hind leg. […] With denervation a reduced atrophy effect of about 27% and 48% is observed with aptamers R5G42 and N9 as compared to the atrophy effect obtained using the NaCl control (FIG. 18). […]

- yeast two-hybrid interaction [1]: shown to interact with NS5A-TP2
B1: N9: R5G42 mutant having a one amino acid change (SEQ ID 33) (protein)
chain: MVKQIESKTAFQEALDAAGDKLVVVDFSAAWCGPSAVTFAVCALGPCKMIKPFFHSLSEKYSNVIFLEVDVDDCQDVASECEVKCMPTFQFFKKGQKVGEFSGANKEKLEATINELV
modifications: Aptamer R5G42 mutant N9
- reduced atrophy effect as compared to the NaCl control (tibialis anterior area) [2]: ~48%

— patent publication US8440804B2, “Polypeptides having modulatory effects on cells” (Ecole Normale Superieure de Lyon, priority 2006, dated 2013)
